# Measurements published in WO2021223719A1 (dated 2021).
# Target: FMC63-scFv-mFc protein
# Assay: ELISA, plate coated with FMC63-scFv-mFc, biotin-labelled FMC63-scFv-mFc for detection
row,Binder,EC50
1,"mAb020 (52H8C4) (antibody, human IgG1, kappa, V domains shown, Tested as the murine hybridoma antibody) VH: EVMLVESGGGLVKPGGSLKLSCAASGFTFSSYTMSWVRQTPEKRLEWVATITGGGGDTFYPDSVKGRFTISRDNAKNTLYLQVSSLRSEDTAVYHCARQYYDYDGGAMDYWGQGTSVTVSS VL: DIVLTQSPASLAVSLGQRAIISCKASQSVSFAGTGLMHWYQQKPGQQPKLLIYRASNLEAGVPTRFSGSGSRTDFTLNIHPVEEDDAATYYCQQSREYPRTFGGGTKLEIKR",0.113 µg/mL
2,"mAb02 (8B3H4) (antibody, human IgG1, kappa, V domains shown, Tested as the murine hybridoma antibody) VH: QVQVQQPGAELVKPGASVRLSCKASGYTFTTYWMHWVKQRPGQGLEWIGMIHPNSDSINYNEKFKSKATLIVDKSSSTFYMQLSSLTSEDSAVYYCARTDGYYAPYFAMDYWGQGTSVTVSS VL: DIQMTQTTSSLSASLGDRVTISCRASQDIRDNLNWYQQKPDGTVKLLIYYKSRSHSGVPSRFSGSGSGTDYSLTISNLEQEDIATYFCQQGNTLPFTFGSGTKLEIKR",0.023 µg/mL
3,"mAb07 (27C5E11) (antibody, V domains shown) VH: QVQLQQPGAELVKPGASVKLSCKASGYTFTSYWMHWVKQRPGQGLEWIGMIHPNGDSTNYNEKFKTKATLTVDKSSSTAYMQLSSLTSEDSAVYYCARTDGYYAPYFAMDYWGQGTSVTVSS VL: DIQMTQSTSSLSASLGDRVTISCRASQDINNYLNWYQQKPDGTVKLLIYYTSRLHLGVPSRFSGSGSGTDYSLTISNLEQEDIATYFCQQGNTLPFTVGSGTKLEIK",0.099 µg/mL
4,"mAb06 (26E7D2) (antibody, human IgG1, kappa, V domains shown, Tested as the murine hybridoma antibody) VH: QVQLQQPGAELVKPGASVKLSCKVSGYTFTSYWIHWVKQRPGRGLEWIGRIDPISGGANYNEKFKTKATLTVDKPSSTAYMQLSSLTSEDSAVYYCARWGGGDYWGHGTTLTVSS VL: not shown",0.0299 µg/mL
5,"mAb023 (75H6C7) (antibody, V domains shown) VH: QAQLQQPGAELVMPGASVKLSCKASGYTFTNYWMNWMKQRPGQGLEWIGEIDPSDSDKNYNQKFKDKATLTVDKSSSTAYMQLSSLTSEDSAVYYCAGGYYGMDFWGQGTSVTVSS VL: DVVMTQTPLSLPVSLGDQASISCRSSQSLENSKGNTYLNWYVQKPGQSPQLLIYRVSTRFSGVLDRFSGSGSGTDFTLKISRVEAEDLGVYFCLQLTHVPFTFGSGTKLEIK",0.0512 µg/mL
